Experimental findings from patent US8399206B2, “Methods for diagnosis, prognosis and methods of treatment” (Nodality, Inc., priority 2008, dated 2013) are described below.

One assay relates to AML blasts. Briefly: SCNP / phospho-flow modulated signaling assay, AML study No. 1 (PBMC at diagnosis, CR vs NR). The assay is classed as cell-based, human.
The subject of assay [1] is leukemic myeloblasts and healthy BMMb. Briefly: SCNP in AML patients aged >60 years (ECOG E3999), FLT3-ITD vs FLT3-WT vs healthy BMMb (Example 12). The assay is classed as cell-based, human. As to conditions: FLT3-ITD blasts compared to BMMb. The source says:
Modulated single cell network profiling (SCNP) was used to evaluate the activation state of intracellular signaling molecules (i.e. nodes), including phosphorylated (p)-Akt, p-Erk, p-S6, p-Stat5 and cleaved-PARP, at baseline and after treatment with specific modulators [including cytokines (such as IL-27) growth factors (such as FLT3 ligand) and drugs (such a cytosine arabinoside)] in 7 healthy bone marrow mononuclear blasts (BMMb) and leukemic myeloblasts, characterized for FLT3 receptor mutation status, from 44 AML patients (38 FLT-WT and 6 FLT3-ITD), aged>60 years (ECOG trial E3999). A total of 64 node-metrics were analyzed.

The mark [2] stands for this setting: Study No. 1 sensitivity analysis, CR samples.
[3] abbreviates: Study No. 1 sensitivity analysis, NR samples incl. CRp.

B1: IL-27: interleukin-27 (protein, UniProt Q8NEV9 29-243; Q14213 21-229, looked up)
Interleukin-27 subunit alpha: FPRPPGRPQLSLQELRREFTVSLHLARKLLSEVRGQAHRFAESHLPGVNLYLLPLGEQLPDVSLTFQAWRRLSDPERLCFISTTLQPFHALLGGLGTQGRWTNMERMQLWAMRLDLRDLQRHLRFQVLAAGFNLPEEEEEEEEEEEEERKGLLPGALGSALQGPAQVSWPQLLSTYRLLHSLELVLSRAVRELLLLSKAGHSVWPLGFPTLSPQP
Interleukin-27 subunit beta: RKGPPAALTLPRVQCRASRYPIAVDCSWTLPPAPNSTSPVSFIATYRLGMAARGHSWPCLQQTPTSTSCTITDVQLFSMAPYVLNVTAVHPWGSSSSFVPFITEHIIKPDPPEGVRLSPLAERQLQVQWEPPGSWPFPEIFSLKYWIRYKRQGAARFHRVGPIEATSFILRAVRPRARYYVQVAAQDLTDYGELSDWSLPATATMSLGK
On to B1, for which, in the assay with AML blasts (setting [2]), the “Mean Value of CRs, p-CREB Total Phospho” value is reported as 1.25; the “Mean Value of CRs, p-Stat1 Total Phospho” value was found to be 0.39; the “Mean Value of CRs, p-Stat3 Total Phospho” value worked out at 1.01. In the assay with AML blasts (setting [3]), the “Mean Value of NRs, p-CREB Total Phospho” value came to 2.36; the “Mean Value of NRs, p-Stat1 Total Phospho” value was found to be 0.81; the “Mean Value of NRs, p-Stat3 Total Phospho” value was determined as 1.85. In the assay on AML blasts (staurosporine resistant samples vs other apoptosis categories), the “IL-27-induced levels of total p-Stat1 and p-Stat3” value is given as “all greater in this apoptotic sub-category”. Besides, the “IL-27 induced activation of the Jak/Stat pathway” value in assay [1] is on record as “minimal IL-27 induced activation of the Jak/Stat pathway”.

B2: FLT-3L: fms-like tyrosine kinase receptor-3 ligand (protein, UniProt P49771 27-235, looked up)
Fms-related tyrosine kinase 3 …: TQDCSFQHSPISSDFAVKIRELSDYLLQDYPVTVASNLQDEELCGGLWRLVLAQRWMERLKTVAGSKMQGLLERVNTEIHFVTKCAFQPPPSCLRFVQTNISRLLQETSEQLVALKPWITRQNFSRCLELQCQPDSSTLPPPWSPRPLEATAPTAPQPPLLLLLLLPVGLLLLAAAWCLHWQRTRRRTPRPGEQVPPVPSPQDLLLVEH
Consider B2, for which, in the assay with AML blasts (setting [2]), the “Mean Value of CRs, p-Akt Fold” value is on record as 0.10; the “Mean Value of CRs, p-CREB Fold” value is listed as 0.07; the “Mean Value of CRs, p-CREB Total Phospho” value was found to be 1.39; the “Mean Value of CRs, p-Erk Fold” value is 0.08. Also, in the assay with AML blasts (setting [2]), the “Mean Value of CRs, p-Plcγ2 Total Phospho” value is reported as 1.81 and the “Mean Value of CRs, p-S6 Fold” value worked out at 0.14. Moreover, the “Mean Value of CRs, p-Plcγ2 Fold” value in the assay on AML blasts (Study No. 1 sensitivity analysis, CR samples, negative = down regulation) is listed as −0.14. Further, in the assay on AML blasts (setting [3]), the “Mean Value of NRs, p-Akt Fold” value is 0.65; the “Mean Value of NRs, p-CREB Fold” value turned out to be 0.36; the “Mean Value of NRs, p-CREB Total Phospho” value came to 2.13; the “Mean Value of NRs, p-Erk Fold” value amounted to 0.33. Besides, in the assay with AML blasts (setting [3]), the “Mean Value of NRs, p-Plcγ2 Total Phospho” value was determined as 2.78 and the “Mean Value of NRs, p-S6 Fold” value turned out to be 0.83. For the same molecule, in the assay on AML blasts (Study No. 1 sensitivity analysis, NR samples incl. CRp, negative = down regulation), the “Mean Value of NRs, p-Plcγ2 Fold” value is −0.08. Also, the “FLT3 ligand-induced pathway activation” value in assay [1] is “decreased FLT3 ligand-induced activation of P13K and Raf/Ras/Erk pathways”.
